Fewer inactive variants are shown than the library holds.
B1: TPR 5TU (parent)
chain: GGAUCUUCUCGAUCUAACAAAAAAGACAAAUCUGCCACAAAGCUUGAGAGCAUCUUCGGAUGCAGAGGCGGCAGCCUUCGGUGGCGCGAUAGCGCCAACGUUCUCAACUAUGACACGCAAAACGCGUGCUCCGUUGAAUGGAGUUUAUCAUG

Variants of: B1
Test: polymerase ribozyme fitness, log enrichment relative to wild type (log ratio); higher = more active; in vitro selection for triplet polymerase activity
In short: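 Libraries of mutants in each subunit of a heterodimeric triplet polymerase ribozyme were generated by PCR and transcribed. In triplicate, each went through one in vitro selection round: annealing with biotinylated primer, partner subunit and triplets; frozen incubation at −7 °C; gel excision of extended constructs; streptavidin-bead capture; RT-PCR. Fitness, taken from Illumina sequencing of input and output libraries, is the logarithm of a genotype's enrichment over wild-type enrichment, averaged across replicates with inverse-variance weights. The logarithm is base 2, and genotypes needed ≥10 input reads and ≥1 read per output to be kept.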

Point of comparison: A22C U101G, “polymerase ribozyme fitness (log ratio)” value 0.0923. Against it:
- A22U G50U C96G — higher, 0.467
- A23C A39G C63U U104C C108G U135C — lower, ≤ -4.2
- A22U G143C — lower, -1.09
- A23G A29G C95G G152U — lower, -3.84
- A22U U55A G94A A98U U135A — lower, -2.29
- A22C C32G C43G G92A C114U C118G U139A — lower, ≤ -4.2
- A22C G42C C69G A91U — lower, ≤ -4.2
- A22U A24U U44A C93A C96U C118U — lower, ≤ -4.2
- A23G G86U C93U A150U — lower, -3.88
- A21U C75G — lower, -4.03
- A22U G50C — lower, -2.99
- A22U G50U — higher, 1.37
- A22U A73G U82A — higher, 1.72
- A23C G84U A106U G117U C118U C123U A142G — lower, ≤ -4.2
- A22G A28U A29G A37C G48A A64C C85G C99U C125A A137G — lower, ≤ -4.2
- A24G C38G A40U A110C — lower, ≤ -4.2
- A22U C96U — within 0.2 log units, 0.237
- A23U A24C A30G A39G C116U — lower, ≤ -4.2
- A22U G25C G48C A122U — lower, ≤ -4.2
- A23C G141C — lower, -3.64
- A23U A40U A73G — lower, ≤ -4.2
- A24C G46A C116G — lower, -4.14
- A23G U90A C93U C105U C125U — lower, ≤ -4.2
- A24C G67A G92U — lower, ≤ -4.2
- A23C A64G G70C — lower, ≤ -4.2
- A22U C76U — higher, 0.515
- A24C G34A C96G G117C U135G U139A U145A — lower, ≤ -4.2
- A23U C57A G92C C149G — lower, ≤ -4.2
- A23U G83U C93A G126U C129U — lower, ≤ -4.2
- A22C C96A A97U U101C — lower, -1.53
- A23G U101A — lower, -3.18
- A22G A24U G59C C96G A98U — higher, 0.453
- A22U C54A — lower, -0.932
- A22C A29C G68A G81A C85A C105G A142U — lower, ≤ -4.2
- A23C C43U A47C C57G C87A A121G G143C U144G — lower, ≤ -4.2
- A22U A52G C75U G83U U134C A142C — lower, -3.51
- A23U G46U G67U C96G U146G U151A — lower, ≤ -4.2
- A22C C36U C51A C75G C87U — lower, ≤ -4.2
- A22U A106G — higher, 1.21
- A23C U44C U55G C57A C93U U145A — lower, ≤ -4.2
- A23G C87U U127C — lower, -3.81
- A23U C108A G143C — lower, ≤ -4.2
- A23C C57U G74C G92U U102A A115C G143C U151A — lower, ≤ -4.2
- A24C C75A A106U C132G U139C A142U — lower, ≤ -4.2
- A23G U144G — lower, -1.79
- A24G C27G A28G C32A U55A U56A C76A C85A G92C U130G — lower, ≤ -4.2
- A22U C27G G50C G58C A97G C103G A110U U139A — lower, ≤ -4.2
- A21U C79G C96U C105U U134A — lower, ≤ -4.2
- A23U C57U — lower, -3.64
- A22G G58A C75A G86U C99A C103U G141C — lower, ≤ -4.2
- A22U A40C G65A — lower, -3.81
- A23U A119G A120U G152A — lower, ≤ -4.2
- A24C A73G G86U C99G C149G — lower, ≤ -4.2
- A22U G46U C69A C93A C131A U148A — lower, ≤ -4.2
- A23C C108G A115G A138U U148C — lower, ≤ -4.2
- A23U G80U A91U G143C A150G — lower, ≤ -4.2
- A22U C38A G59A C85U C95A — lower, -0.962
- A22U U53A G88A C116G A142G A150C — lower, ≤ -4.2
- A22U C125U — lower, -0.442
- A21U C96A G136A — within 0.2 log units, 0.203
- A23G G50C — lower, -4
- A22C A28C A40G C43U U56G C85U — lower, ≤ -4.2
- A24G G83U — lower, -3.03
- A22C C131G — lower, -3.49
- A22U A30U C95U U134A — lower, ≤ -4.2
- A22U A150C — lower, -2.85
- A22G C57U G70A A91C — lower, ≤ -4.2
- A23C C35A C36G C54A A137G U148G — lower, ≤ -4.2
- A22C G84C G133U — lower, ≤ -4.2
- A23U C99U — lower, -3.84
- A22G C38U C95U A107C G128A — lower, ≤ -4.2
- A24C A37C U53A A66U C95A C114G U135C U144A — lower, ≤ -4.2
- A22C U102G A110G — lower, ≤ -4.2
- A21U C96U C108U C132A — lower, ≤ -4.2
- A22U U55G A73C G86A C116A A142U — lower, ≤ -4.2
- A24U A28C A52G G71A C96G A137C — lower, ≤ -4.2
- A22U A26C A47C C57A G62A G86A A89U A106U C108G — lower, ≤ -4.2
- A22U A24C A40U U55A C85A G117C G136U A138C — lower, ≤ -4.2
- A23C U56A G86U A115G — lower, ≤ -4.2
- A23U U44A U55A A122U — lower, ≤ -4.2
- A24C A26U U31A G68U C87A A89G A98G C132G — lower, ≤ -4.2
- A23G A26C G141A C149G — lower, ≤ -4.2
